Consider 42 molecules from patent US20200048331A1 (CANIMGUIDE THERAPEUTICS, published 2020).

Where no end group is shown, it is not given here. The star is where a group is joined. Cam = NC(=O)C*

Sequences and labels used below:
B1: synthesized albumin peptide 2606 KLDELRDEGKAS (peptide)
peptide: KLDELRDEGKAS
notes: Synthetic (CSBio); also called E5K peptide 2606
B2: synthesized albumin peptide 2605 NEETFLKKYLYE (peptide)
peptide: NEETFLKKYLYE
notes: Synthetic (CSBio); also called E5K peptide 2605

The first test deals with artificial cell surface (ACS): biotinylated cell surface proteins from human mononuclear blood cells coupled to streptavidin-sepharose. In words: ACS affinity column adsorption of tryptic dHSA peptides, MALDI-TOF ms.
For HSA tryptic peptide residues 438-452 …, the Per cent adsorbed (per cent adsorbed, printed as fraction) stood at 0.64.

Molecule HSA tryptic peptide residues 439-452 … registered a Per cent adsorbed (per cent adsorbed, printed as fraction) of 0.59.

Turning to RPC(Cam)FSALEVDETYVPK [HSA tryptic peptide residues 509-524 …], the Per cent adsorbed (per cent adsorbed, printed as fraction) stood at 0.42.

For YIC(Cam)ENQDSISSK [HSA tryptic peptide residues 287-298 …], the Per cent adsorbed (per cent adsorbed, printed as fraction) worked out at 0.03.

As for C(Cam)C(Cam)TESLVNR [HSA tryptic peptide residues 500-508 …], the Per cent adsorbed (per cent adsorbed, printed as fraction) was determined as 0.26.

As to C(Cam)C(Cam)AAADPHEC(Cam)YAK [HSA tryptic peptide residues 384-396 …], the Per cent adsorbed (per cent adsorbed, printed as fraction) amounted to 0.32.

LDELRDEGK [HSA tryptic peptide residues 206-214 …] registered a Per cent adsorbed (per cent adsorbed, printed as fraction) of 0.02.

The molecule FKDLGEENFK [HSA tryptic peptide residues 35-44 …] displayed a Per cent adsorbed (per cent adsorbed, printed as fraction) of 0.08.

In turn, KVFDEFKPLVEEPQNLIKQ [HSA tryptic peptide residues 397-413 …] came in with a Per cent adsorbed (per cent adsorbed, printed as fraction) of 0.6.

On to LCTVATLR (Cys alkylated with iodoacetamide (from dHSA)) [HSA tryptic peptide residues 098-105 LCTVATLR], for which the Per cent adsorbed (per cent adsorbed, printed as fraction) came to 0.35.

With VHTEC(Cam)C(Cam)HGDLLEC(Cam)ADDR [HSA tryptic peptide residues 265-281 …], the Per cent adsorbed (per cent adsorbed, printed as fraction) is 0.13.

Turning to ETYGEMADC(Cam)C(Cam)AK [HSA tryptic peptide residues 106-117 …], the Per cent adsorbed (per cent adsorbed, printed as fraction) is -0.08.

With QNC(Cam)ELFEQLGEYK [HSA tryptic peptide residues 414-426 …], the Per cent adsorbed (per cent adsorbed, printed as fraction) was determined as 0.2.

LKEC(Cam)C(Cam)EKPLLEK [HSA tryptic peptide residues 299-310 …] displayed a Per cent adsorbed (per cent adsorbed, printed as fraction) of 0.36.

Turning to YKAAFTEC(Cam)C(Cam)QAADK [HSA tryptic peptide residues 185-198 …], the Per cent adsorbed (per cent adsorbed, printed as fraction) was -0.37.

For the molecule YLYEIAR [HSA tryptic peptide residues 162-168 YLYEIAR], the Per cent adsorbed (per cent adsorbed, printed as fraction) was found to be 0.34.

As to FQNALLVR [HSA tryptic peptide residues 427-434 FQNALLVR], the Per cent adsorbed (per cent adsorbed, printed as fraction) stood at 0.41.

Regarding AVMDDFAAFVEK [HSA tryptic peptide residues 570-581 …], the Per cent adsorbed (per cent adsorbed, printed as fraction) was found to be 0.23.

As to SLHTLFGDK [HSA tryptic peptide residues 089-097 …], the Per cent adsorbed (per cent adsorbed, printed as fraction) was 0.36.

As for AAFTEC(Cam)C(Cam)QAADK [HSA tryptic peptide residues 187-198 …], the Per cent adsorbed (per cent adsorbed, printed as fraction) came out at 0.29.

Molecule DDNPNLPR [HSA tryptic peptide residues 131-138 DDNPNLPR] showed a Per cent adsorbed (per cent adsorbed, printed as fraction) of 0.01.

With NECFLQHK (Cys alkylated with iodoacetamide (from dHSA)) [HSA tryptic peptide residues 123-130 NECFLQHK], the Per cent adsorbed (per cent adsorbed, printed as fraction) worked out at 0.22.

In the case of LVNEVTEFAK [HSA tryptic peptide residues 066-075 …], the Per cent adsorbed (per cent adsorbed, printed as fraction) is -0.02.

In turn, KYLYEIAR [HSA tryptic peptide residues 161-168 KYLYEIAR] came in with a Per cent adsorbed (per cent adsorbed, printed as fraction) of 0.71.

The next test deals with T1, LFA-1 (CD11a) on immune cells (human, UniProt P20701 26-1170; P05107 23-769).
T1 construct: whole, on cells; On acetone-fixed cytospin preparations of human PBMC or THP-1 cells; also called β2-integrin
T1 sequence (P20701 26-1170, chain 1 of 2): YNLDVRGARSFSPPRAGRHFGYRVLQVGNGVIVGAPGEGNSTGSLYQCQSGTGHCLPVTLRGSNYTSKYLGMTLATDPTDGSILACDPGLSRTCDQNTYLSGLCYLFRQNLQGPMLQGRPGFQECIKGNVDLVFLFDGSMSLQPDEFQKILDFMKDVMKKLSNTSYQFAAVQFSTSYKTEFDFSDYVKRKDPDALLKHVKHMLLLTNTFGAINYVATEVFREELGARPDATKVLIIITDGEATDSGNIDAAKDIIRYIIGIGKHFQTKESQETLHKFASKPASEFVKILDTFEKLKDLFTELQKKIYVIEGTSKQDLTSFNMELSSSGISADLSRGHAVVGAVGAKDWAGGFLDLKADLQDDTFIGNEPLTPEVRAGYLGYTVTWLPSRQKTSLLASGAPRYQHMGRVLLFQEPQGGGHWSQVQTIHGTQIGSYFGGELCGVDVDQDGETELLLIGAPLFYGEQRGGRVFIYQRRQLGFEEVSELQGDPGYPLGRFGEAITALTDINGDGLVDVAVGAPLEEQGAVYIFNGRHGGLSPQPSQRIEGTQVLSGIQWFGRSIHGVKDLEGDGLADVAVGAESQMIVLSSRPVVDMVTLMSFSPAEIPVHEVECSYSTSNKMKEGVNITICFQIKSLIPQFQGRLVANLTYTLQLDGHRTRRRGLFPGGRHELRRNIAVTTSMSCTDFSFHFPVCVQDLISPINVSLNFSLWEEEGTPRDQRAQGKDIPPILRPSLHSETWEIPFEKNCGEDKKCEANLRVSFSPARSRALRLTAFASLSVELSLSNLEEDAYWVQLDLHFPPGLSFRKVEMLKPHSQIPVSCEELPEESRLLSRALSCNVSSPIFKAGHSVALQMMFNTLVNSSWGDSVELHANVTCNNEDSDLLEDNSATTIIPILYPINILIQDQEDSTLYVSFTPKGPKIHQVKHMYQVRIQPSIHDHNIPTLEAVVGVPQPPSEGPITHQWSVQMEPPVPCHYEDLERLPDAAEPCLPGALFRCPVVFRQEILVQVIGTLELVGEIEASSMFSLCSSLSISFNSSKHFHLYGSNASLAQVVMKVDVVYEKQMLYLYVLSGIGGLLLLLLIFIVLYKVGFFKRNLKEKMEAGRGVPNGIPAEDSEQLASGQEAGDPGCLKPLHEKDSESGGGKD
T1 sequence (P05107 23-769, chain 2 of 2): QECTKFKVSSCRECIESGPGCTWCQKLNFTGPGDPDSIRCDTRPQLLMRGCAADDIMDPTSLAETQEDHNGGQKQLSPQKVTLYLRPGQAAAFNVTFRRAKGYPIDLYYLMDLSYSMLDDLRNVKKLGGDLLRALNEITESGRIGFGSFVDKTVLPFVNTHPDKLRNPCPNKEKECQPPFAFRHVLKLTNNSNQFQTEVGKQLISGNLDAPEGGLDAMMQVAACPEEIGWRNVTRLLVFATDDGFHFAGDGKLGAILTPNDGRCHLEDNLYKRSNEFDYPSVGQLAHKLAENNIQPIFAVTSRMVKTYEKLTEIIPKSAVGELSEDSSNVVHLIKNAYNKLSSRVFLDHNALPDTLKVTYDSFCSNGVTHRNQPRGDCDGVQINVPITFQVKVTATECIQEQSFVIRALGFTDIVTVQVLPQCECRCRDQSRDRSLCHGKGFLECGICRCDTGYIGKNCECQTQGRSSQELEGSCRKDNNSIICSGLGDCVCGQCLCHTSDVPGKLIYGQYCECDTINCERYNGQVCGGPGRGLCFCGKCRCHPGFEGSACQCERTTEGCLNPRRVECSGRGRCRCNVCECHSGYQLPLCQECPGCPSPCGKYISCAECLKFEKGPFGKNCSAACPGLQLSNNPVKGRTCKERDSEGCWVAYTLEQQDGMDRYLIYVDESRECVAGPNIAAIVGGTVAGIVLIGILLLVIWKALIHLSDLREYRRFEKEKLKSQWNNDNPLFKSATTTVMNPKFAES
Nature of the test: effect of peptide pre-incubation on HI111 staining of LFA-1 on PBMC and THP-1 cytospins.
For B1, the binding result is “binds”.

For a further test, the target named is artificial cell surface (ACS): biotinylated cell surface proteins from human mononuclear blood cells coupled to streptavidin-sepharose. In words: ACS affinity column adsorption of tryptic dHSA peptides, MALDI-TOF ms; first of two lines for this peptide.
QEPERNEC(Cam)FLQHK [HSA tryptic peptide residues 118-130 …] registered a Per cent adsorbed (per cent adsorbed, printed as fraction) of 0.26.

For another test the target is unchanged. Nature of the test: ACS affinity column adsorption of ASP-N dHSA peptides (3200-9000 Da), MALDI-TOF ms.
HSA ASP-N peptide residues 96-130 … gave a Per cent adsorbed (per cent adsorbed, printed as fraction) of 1.

For the molecule YLSVVLNQLC(Cam)VLHEKTPVSDRVTKC(Cam)C(Cam)TESLVNRRPC(Cam)FSALEV [HSA ASP-N peptide residues 475-517 …], the Per cent adsorbed (per cent adsorbed, printed as fraction) stood at 0.37.

Molecule IC(Cam)TLSEKERQIKKQTALVELVKHKPKATKEQLKAVM [HSA ASP-N peptide residues 536-572 …] yielded a Per cent adsorbed (per cent adsorbed, printed as fraction) of 1.

Molecule VFLGMFLYEYARRHPDYSVVLLLRLAKTYETTLEKC(Cam)C(Cam)AAA [HSA ASP-N peptide residues 348-388 …] registered a Per cent adsorbed (per cent adsorbed, printed as fraction) of 1.

As for YSVVLLLRLAKTYETTLEKC(Cam)C(Cam)AAADPHEC(Cam)YAKVF [HSA ASP-N peptide residues 364-398 …], the Per cent adsorbed (per cent adsorbed, printed as fraction) was 1.

Molecule LAKYIC(Cam)ENQDSISSKLKEC(Cam)C(Cam)EKPLLEKSHC(Cam)IAEVEN [HSA ASP-N peptide residues 283-319 …] had a Per cent adsorbed (per cent adsorbed, printed as fraction) of 1.

As for LGEENFKALVLIAFAQYLQQC(Cam)PFEDHVKLVNEVTEFAKTC(Cam)VA [HSA ASP-N peptide residues 37-79 …], the Per cent adsorbed (per cent adsorbed, printed as fraction) is 1.

As for RVTKC(Cam)C(Cam)TESLVNRRPC(Cam)FSALEVDETYVPKEFNAETFTFHA [HSA ASP-N peptide residues 495-535 …], the Per cent adsorbed (per cent adsorbed, printed as fraction) turned out to be 1.

The target of another test is T1, LFA-1 (CD11a) on immune cells. In words: inferred from modulation of HI111 staining of LFA-1 on mononuclear blood cells.
With VFDEFKPLVEEPQNLIK (Synthetic (CSBio); also called 80) [synthesized albumin peptide 3028 VFDEFKPLVEEPQNLIK], the binding result is “binds”.

Another test deals with artificial cell surface (ACS): biotinylated cell surface proteins from human mononuclear blood cells coupled to streptavidin-sepharose. In words: ACS affinity column adsorption of ASP-N dHSA peptides (700-3600 Da), MALDI-TOF ms.
Take DETYVPKEFNAETFTHA [HSA ASP-N peptide residues 518-535 …]: the Per cent adsorbed (per cent adsorbed, printed as fraction) was 0.86.

DDKETC(Cam)FAEEGKKLVAASQAALGL [HSA ASP-N peptide residues 586-609 …] came in with a Per cent adsorbed (per cent adsorbed, printed as fraction) of 1.

The molecule DHVKLVNEVTEFAKTC(Cam)VA [HSA ASP-N peptide residues 62-79 …] yielded a Per cent adsorbed (per cent adsorbed, printed as fraction) of 1.

On to DSISSKLKEC(Cam)C(Cam)EKPLLEKSHC(Cam)IAEVEN [HSA ASP-N peptide residues 293-319 …], for which the Per cent adsorbed (per cent adsorbed, printed as fraction) amounted to 0.65.

On to DRVTKC(Cam)C(Cam)TESLVNRRPC(Cam)FSALEV [HSA ASP-N peptide residues 495-517 …], for which the Per cent adsorbed (per cent adsorbed, printed as fraction) came out at 0.87.

DKLC(Cam)TVATLRETYGEM [HSA ASP-N peptide residues 96-112 …]: the Per cent adsorbed (per cent adsorbed, printed as fraction) is 0.65.

The next test concerns the target T1, LFA-1 (CD11a) on immune cells. Nature of the test: effect of peptide pre-incubation on HI111 staining of LFA-1 on PBMC cytospins.
Regarding B2, the binding result was “binds”.

The target in another test is artificial cell surface (ACS): biotinylated cell surface proteins from human mononuclear blood cells coupled to streptavidin-sepharose. In words: ACS affinity column adsorption of tryptic dHSA peptides, MALDI-TOF ms; second of two lines for this peptide.
Take QEPERNEC(Cam)FLQHK [HSA tryptic peptide residues 118-130 …]: the Per cent adsorbed (per cent adsorbed, printed as fraction) stood at 0.18.
